Laboratory results: article PMC5772552

Experiments:
Assay in all cases: ELISA; semi-quantitative; plate coated with 30 nM protein (GST-tagged cohesin) in 0.1 M Na2CO3 pH 9.6 at 4 °C; His6-tagged dockerin 10 pM-1 μM in TBS with 1 mM CaCl2 and 1% BSA, 1 h, room temperature; anti-6xHis and HRP secondary antibody; fit with Hill equation
[1] = molecular target: BSA (bovine (from the name BSA)) (UniProt P02769)
[2] = molecular target: GST-Coh1 (from plasmid pGEX-Coh1) (Clostridium thermocellum)
[3] = molecular target: GST-Cohwt (from plasmid pGEX-Cohwt) (Clostridium thermocellum) (UniProt Q06851)

Sequence of UniProt P02769 (P02769 25-607): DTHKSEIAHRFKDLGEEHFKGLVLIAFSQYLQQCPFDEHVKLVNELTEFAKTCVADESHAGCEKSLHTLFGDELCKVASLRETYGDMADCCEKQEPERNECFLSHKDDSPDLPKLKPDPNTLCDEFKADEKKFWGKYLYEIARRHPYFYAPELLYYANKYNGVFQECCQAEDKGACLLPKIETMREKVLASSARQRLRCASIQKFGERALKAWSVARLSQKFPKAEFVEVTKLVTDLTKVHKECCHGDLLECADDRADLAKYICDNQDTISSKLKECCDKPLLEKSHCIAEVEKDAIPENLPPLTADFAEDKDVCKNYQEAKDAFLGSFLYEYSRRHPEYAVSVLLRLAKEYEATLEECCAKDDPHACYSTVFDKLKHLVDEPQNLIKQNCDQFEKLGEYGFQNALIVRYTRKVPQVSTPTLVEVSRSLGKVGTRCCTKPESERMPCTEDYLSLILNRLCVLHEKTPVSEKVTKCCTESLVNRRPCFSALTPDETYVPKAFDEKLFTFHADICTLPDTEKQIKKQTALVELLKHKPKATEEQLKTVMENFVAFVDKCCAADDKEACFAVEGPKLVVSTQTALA

Kd [1]: > 1000 nM
Kd [2]: > 500 nM
Kd [3]: 0.77 nM
Substance: MBP-X6b-Docwt-His6 (from plasmid pMAL-Docwt) (from UniProt P51584 733-791) (domain or fragment)
